Assay results as given in paper PMC8567202, “Phosphoinositide-binding activity of Smad2 is essential for its function in TGF-β signaling” (The Journal of Biological Chemistry, 2021).

Test system: TβRI L45 loop region peptide (F-Ahx-ADNKDNGT)
Experiment: Fluorescence anisotropy binding to TβRI L45 peptide
Settings: for Kd: 20 mM Tris, pH 7.9, 160 mM NaCl, 10-min incubation, average ±S.D., n = 3
Description: However, this tentative assignment has been confirmed neither by a high-resolution structure of the Smad2-TβRI complex nor by a quantitative and systematic binding study, leaving uncertainty about the exact nature of the Smad2-TβRI-binding interface. Since the L3 loop is a part of the newly identified PI(4,5)P2-binding site, we checked if these PI(4,5)P2-binding residues are also involved in the Smad2-TβRI interaction using two fluorescein-labeled synthetic peptides derived from the GS region (i.e., GS peptide: fluorescein-aminohexanoyl (F-Ahx)-YDMTTpSGpSGpSGLPLL) and the L45 loop (i.e., L45 peptide: F-Ahx-ADNKDNGT), respectively. In particular, the GS peptide represents the GS motif triply phosphorylated by TβRII. We then measured binding to Smad2 WT and mutants to these peptides by fluorescence anisotropy according to our established protocol ([21]). […] We thus primarily used the GS peptide to assess the effects of mutations on the Smad2-TβRI interaction. […] They also yielded distinct structural variants for further functional studies. Specifically, W422A and Y426A could serve as specific PI(4,5)P2 binding-compromised mutants and K420A as a predominantly TβRI binding-compromised mutant. R427A/R428A could also serve as a PI(4,5)P2 and TβRI binding-compromised mutant, whereas E425K as a PI(4,5)P2 and TβRI binding-enhanced mutant.
Figure 3 Affinity of Smad2 WT and mutants for TβRI-derived peptides determined by fluorescence anisotropy.A, binding of Smad2 WT (black), W422A (red), Y420A (cyan), R427A/R428A (green), K420A (blue), and E425K (orange) to the GS peptide (F-Ahx-YDMTTpSGpSGpSGLPLL). […] B, binding of Smad2 WT (black), W422A (red), Y420A (cyan), R427A/R428A (green), K420A (blue), and E425K (orange) to the L45 loop peptide (F-Ahx-DNKDNGT). C, effects of 50 μM POPC/POPS/PI(4,5)P2 (77:20:3) LUVs on binding of Smad2 to the GS peptide. The presence of vesicles (orange) raises the Kd value from 20 ± 6 to 60 ± 7 nM. The peptide concentration was fixed at 2.5 nM, and the Smad2 concentration was varied from 0 to 150 μM. The experimentally observed anisotropy (A) values were normalized (Anorm) using the equation: Anorm = (A − Amin)/(Amax − Amin) where Amax and Amin are maximal and minimal A values, respectively, for each measurement. The plots of Anormversus [Smad2] were analyzed by the nonlinear least-squares analysis using the equation: Anorm = 1/(1 + Kd/[Smad2]).
The fluorescein-6-aminohexanoyl (F-Ahx)-labeled TβRI GS region peptide (F-Ahx-YDMTTpSGpSGpSGLPLL) was dissolved in dimethyl sulfoxide to yield 1 mg/ml stock solution, F-Ahx-labeled TβRI L45 loop region peptide (F-Ahx-ADNKDNGT) was dissolved in a 3:1 mixture of water and acetonitrile to yield 2.5 mg/ml stock solution. Both peptide solutions were diluted to 1 to 10 μM with 20 mM Tris buffer, pH 7.9, containing 160 mM NaCl for binding studies. In total, 300 μl of the Smad2 (WT or mutant) solution (0–250 μM) was added to a series of 1.5 ml microcentrifuge containing the peptide solution (2.5 μM). After 10-min incubation in the dark, the mixture was transferred to a quartz cuvette with 2-mm path length and fluorescence anisotropy (r) was measured with excitation and emission wavelengths set at 485 and 535 nm, respectively, using Horiba Flurolog-3 spectrofluorometer. Since Po >> Pepo under our conditions, the Kd for the Smad2-peptide binding was determined by the nonlinear least-squares analysis of the binding isotherm using the Equation 1:(1) Pepbound/Pep0=Δr/Δrmax=1/1+kd/P0 where Pepbound, Pep0, and P0 indicate the concentration of bound peptide, total peptide, and total Smad2, respectively, and Δr and Δrmax are the anisotropy change for each P0 and the maximal Δr, respectively.

Molecule | L45 peptide affinity relative to WT | Kd
Smad2-W422A: W422A mutant of full-length Smad2; specific PI(4,5)P2 binding-compromised (protein, left off: His6, N-terminal, state not stated) MSSILPFTPPVVKRLLGWKKSAGGSGGAGGGEQNGQEEKWCEKAVKSLVKKLKKTGRLDELEKAITTQNCNTKCVTIPSTCSEIWGLSTANTVDQWDTTGLYSFSEQTRSLDGRLQVSHRKGLPHVIYCRLWRWPDLHSHHELKAIENCEYAFNLKKDEVCVNPYHYQRVETPVLPPVLVPRHTEILTELPPLDDYTHSIPENTNFPAGIEPQSNYIPETPPPGYISEDGETSDQQLNQSMDTGSPAELSPTTLSPVNHSLDLQPVTYSEPAFWCSIAYYELNQRVGETFHASQPSLTVDGFTDPSNSERFCLGLLSNVNRNATVEMTRRHIGRGVRLYYIGGEVFAECLSDSAIFVQSPNCNQRYGWHPATVCKIPPGCNLKIFNNQEFAALLAQSVNQGFEAVYQLTRMCTIRMSFVKGAGAEYRRQTVTSTPCWIELHLNGPLQWLDKVLTQMGSPSVRCSSMS | WT-like affinity | 67 ± 6 µM
Smad2- R427A/R428A: double mutant of full-length Smad2; PI(4,5)P2 and TβRI binding-compromised (protein, left off: His6, N-terminal, state not stated) MSSILPFTPPVVKRLLGWKKSAGGSGGAGGGEQNGQEEKWCEKAVKSLVKKLKKTGRLDELEKAITTQNCNTKCVTIPSTCSEIWGLSTANTVDQWDTTGLYSFSEQTRSLDGRLQVSHRKGLPHVIYCRLWRWPDLHSHHELKAIENCEYAFNLKKDEVCVNPYHYQRVETPVLPPVLVPRHTEILTELPPLDDYTHSIPENTNFPAGIEPQSNYIPETPPPGYISEDGETSDQQLNQSMDTGSPAELSPTTLSPVNHSLDLQPVTYSEPAFWCSIAYYELNQRVGETFHASQPSLTVDGFTDPSNSERFCLGLLSNVNRNATVEMTRRHIGRGVRLYYIGGEVFAECLSDSAIFVQSPNCNQRYGWHPATVCKIPPGCNLKIFNNQEFAALLAQSVNQGFEAVYQLTRMCTIRMSFVKGWGAEYAAQTVTSTPCWIELHLNGPLQWLDKVLTQMGSPSVRCSSMS | slightly lower affinity | 75 ± 11 µM
Smad2-K420A: K420A mutant of full-length Smad2; predominantly TβRI binding-compromised (protein, left off: His6, N-terminal, state not stated) MSSILPFTPPVVKRLLGWKKSAGGSGGAGGGEQNGQEEKWCEKAVKSLVKKLKKTGRLDELEKAITTQNCNTKCVTIPSTCSEIWGLSTANTVDQWDTTGLYSFSEQTRSLDGRLQVSHRKGLPHVIYCRLWRWPDLHSHHELKAIENCEYAFNLKKDEVCVNPYHYQRVETPVLPPVLVPRHTEILTELPPLDDYTHSIPENTNFPAGIEPQSNYIPETPPPGYISEDGETSDQQLNQSMDTGSPAELSPTTLSPVNHSLDLQPVTYSEPAFWCSIAYYELNQRVGETFHASQPSLTVDGFTDPSNSERFCLGLLSNVNRNATVEMTRRHIGRGVRLYYIGGEVFAECLSDSAIFVQSPNCNQRYGWHPATVCKIPPGCNLKIFNNQEFAALLAQSVNQGFEAVYQLTRMCTIRMSFVAGWGAEYRRQTVTSTPCWIELHLNGPLQWLDKVLTQMGSPSVRCSSMS | lowest affinity | 100 ± 16 µM
Smad2-E425K: charge-reversal mutant of full-length Smad2; PI(4,5)P2 and TβRI binding-enhanced (protein, left off: His6, N-terminal, state not stated) MSSILPFTPPVVKRLLGWKKSAGGSGGAGGGEQNGQEEKWCEKAVKSLVKKLKKTGRLDELEKAITTQNCNTKCVTIPSTCSEIWGLSTANTVDQWDTTGLYSFSEQTRSLDGRLQVSHRKGLPHVIYCRLWRWPDLHSHHELKAIENCEYAFNLKKDEVCVNPYHYQRVETPVLPPVLVPRHTEILTELPPLDDYTHSIPENTNFPAGIEPQSNYIPETPPPGYISEDGETSDQQLNQSMDTGSPAELSPTTLSPVNHSLDLQPVTYSEPAFWCSIAYYELNQRVGETFHASQPSLTVDGFTDPSNSERFCLGLLSNVNRNATVEMTRRHIGRGVRLYYIGGEVFAECLSDSAIFVQSPNCNQRYGWHPATVCKIPPGCNLKIFNNQEFAALLAQSVNQGFEAVYQLTRMCTIRMSFVKGWGAKYRRQTVTSTPCWIELHLNGPLQWLDKVLTQMGSPSVRCSSMS | slightly higher affinity | 55 ± 3 µM
Smad2-Y426A: Y426A mutant of full-length Smad2; specific PI(4,5)P2 binding-compromised (protein, left off: His6, N-terminal, state not stated) MSSILPFTPPVVKRLLGWKKSAGGSGGAGGGEQNGQEEKWCEKAVKSLVKKLKKTGRLDELEKAITTQNCNTKCVTIPSTCSEIWGLSTANTVDQWDTTGLYSFSEQTRSLDGRLQVSHRKGLPHVIYCRLWRWPDLHSHHELKAIENCEYAFNLKKDEVCVNPYHYQRVETPVLPPVLVPRHTEILTELPPLDDYTHSIPENTNFPAGIEPQSNYIPETPPPGYISEDGETSDQQLNQSMDTGSPAELSPTTLSPVNHSLDLQPVTYSEPAFWCSIAYYELNQRVGETFHASQPSLTVDGFTDPSNSERFCLGLLSNVNRNATVEMTRRHIGRGVRLYYIGGEVFAECLSDSAIFVQSPNCNQRYGWHPATVCKIPPGCNLKIFNNQEFAALLAQSVNQGFEAVYQLTRMCTIRMSFVKGWGAEARRQTVTSTPCWIELHLNGPLQWLDKVLTQMGSPSVRCSSMS | WT-like affinity | 70 ± 7 µM
Smad2 WT: bacterially expressed full-length Smad2 wild-type (protein, left off: His6, N-terminal, state not stated, bacterially expressed full-length Smad2 wild-type) MSSILPFTPPVVKRLLGWKKSAGGSGGAGGGEQNGQEEKWCEKAVKSLVKKLKKTGRLDELEKAITTQNCNTKCVTIPSTCSEIWGLSTANTVDQWDTTGLYSFSEQTRSLDGRLQVSHRKGLPHVIYCRLWRWPDLHSHHELKAIENCEYAFNLKKDEVCVNPYHYQRVETPVLPPVLVPRHTEILTELPPLDDYTHSIPENTNFPAGIEPQSNYIPETPPPGYISEDGETSDQQLNQSMDTGSPAELSPTTLSPVNHSLDLQPVTYSEPAFWCSIAYYELNQRVGETFHASQPSLTVDGFTDPSNSERFCLGLLSNVNRNATVEMTRRHIGRGVRLYYIGGEVFAECLSDSAIFVQSPNCNQRYGWHPATVCKIPPGCNLKIFNNQEFAALLAQSVNQGFEAVYQLTRMCTIRMSFVKGWGAEYRRQTVTSTPCWIELHLNGPLQWLDKVLTQMGSPSVRCSSMS |  | 66 ± 4 µM
